Experiment: soluble on expression in E. coli; label from the status in PepcDB or PDB records

Sequence | soluble on expression in E. coli
MSLGKLFGTDGIRGVTNTELQPEFALKIGKAIGTYFGKGARILIGRDVRAGGDMLLKAVESGLLSSGVLVYEAGMAPTPAFQYGVKALGYDGGVIITASHNPAEYNGIKVLSPHGIEISREDEDKIEDIYFNSRFHVVEWNGLVNDVKREDKVIETYLRGILSHVDTEKIKSKKYKVLIDPANSVGTLVTPIVARELGCKVFTINGNLDPLFSARTPEPTFESLTESAKVAKQLGVDLAVAHDGDADRAIFIDSMGRVQWGDRSGTLLSYWASVKAPNLPRRIFTAVSSSSLVEEYLKKYNIEVKWTKVGSIDIAHMLFKEKGVAGFEENGGFMYPPHQTVRDGAMSFALMLDMMASENESSAELFNRLPVYYLVKTKVRVTEKSDIKKIYDEVMNKYGNYGNTVTIDGVKIIGSDFWLLVRKSGTEPIIRILVEAKDENKSKELAKELEKLVSELVEGHHHHHH | soluble
MGSDKIHHHHHHMAFCNNANLLNVFVRHIANNQLRSLAEVATVAHQLKLLKDDFFASDQQAVAVADRYPQDVFAEHTHDFCELVIVWRGNGLHVLNDRPYRITRGDLFYIHADDKHSYASVNDLVLQNIIYCPERLKLNLDWQGAIPGFNASAGQPHWRLGSMGMAQARQVIGQLEHESSQHVPFANEMAELLFGQLVMLLNRHRYTSDSLPPTSSETLLDKLITRLAASLKSPFALDKFCDEASCSERVLRQQFRQQTGMTINQYLRQVRVCHAQYLLQHSRLLISDISTECGFEDSNYFSVVFTRETGMTPSQWRHLNSQKD | not soluble
MEFMRVERVLLKDYTTLGVGGPAELWTVETREELKRATEAPYRVLGNGSNLLVLDEGVPERVIRLAGEFQTYDLKGWVGAGTLLPLLVQEAARAGLSGLEGLLGIPAQVGGAVKMNAGTRFGEMADALEAVEVFHDGAFHVYCPEELGFGYRKSHLPPGGIVTRVRLKLKERPKEEILRRMAEVDRARKGQPKRKSAGCAFKNPPGQSAGRLIDERGLKGLRVGDAMISLEHGNFIVNLGQARAKDVLELVRRVQEELPLELEWEVWP | soluble
MGSGEPNPAGKKKKYLKAALYVGDLDPDVTEDMLYKKFRPAGPLRFTRICRDPVTRSPLGYGYVNFRFPADAEWALNTMNFDLINGKPFRLMWSQPDDRLRKSGVGNIFIKNLDKSIDNRALFYLFSAFGNILSCKVVCDDNGSKGYAYVHFDSLAAANRAIWHMNGVRLNNRQVYVGRFKFPEERAAEVRTRDRATFTNVFVKNIGDDIDDEKLKELFCEYGPTESVKVIRDASGKSKGFGFVRYETHEAAQKAVLDLHGKSIDGKVLYVGRAQKKIERLAELRRRFERLRLKEKSRPPGVPIYIKNLDETINDEKLKEEFSSFGSISRAKVMMEVGQGKGFGVVCFSSFEEATKAVDEMNGRIVGSKPLHVTLGQARRRC | soluble
MSLAKHIVELTDALSNKIAAGEVVERPASVVKELVENAIDAGSTVIDILVEEAGLNKITIIDNGSGIEEEDVATAFLRHATSKIKNEADLFRVHTLGFRGEALPSIASVSHLEMETSTGEAKGTTISLEGGKIIEQKSGHARKGTQIEVSQLFFNTPARLKYLKSLPTELGNITDILNRLALAHPDISFRFSHNGKPLLQTNGNGELRQVIAAIYGVSIAKKSVPVKAESLDFKISGYAVLPEVNRSNRNYISTIINGRFIKNFALVKAIQEGYHTLLPIGRFPIIVLQIEMDPIIVDVNVHPAKLEVRLSKEKELGQLISQMIKETFHKLQLIPDGEISKEGHHHHHH | soluble
MSEQKIEVVGKLGSTYGIRGWLRLYSSTEKAESIFDYQPWFLKIKGQWQLIELESWRYHSNDLIVKLKGTEDREAAQLLTNAEIGVDLSVFPKLGEEDYYWHDLINCQVVNLENYTMGVVTELMETGSNDVLVVRANSKDAFGKQERLIPFLYKQVVKRVDLSTKTITVDWDAGFLEHHHHHH | soluble
KESCKMFIGGLNWDTTEDNLREYFGKYGTVTDLKIMKDPATGRSRGFGFLSFEKPSSVDEVVKTQHILDGKVIDPKRAIPRDEQDKTGKIFVGGIGPDVRPKEFEEFFSQWGTIIDAQLMLDKDTGQSRGFGFVTYDSADAVDRVCQNKFIDFKDRKIEIKRAEPRH | soluble
MAHHHHHHMKRVANAKHATYDMPPKGLRVRDMLEKTAQQNCNQRKRGKCRKFFFLWKMDKMGDTHLGGQANGRKNLLRSESATDEASLGGNPLKEKLKESPANWGKDKQEEQQSTDRLPLPKVGNKMPEKKPDWFHVPAPTGKKYNELKADLKKLKLHTVCEEAQCPNIGECWNIGTATIMLLGDTCTRGCKFCSIKTSSKPLPPDANEPFNTAKAICEWDINYVVLTSVDRDDLPDGGASHFAKTIELIKFSRPEILIECLVSDFQGNVDSIRKLANSGMEVYAHNIETVRRLQKFVRDRRANYEQSLWVLKTAKEINPLLYTKTSIMLGLGETKQEVLQAMADVRQNNIDVITFGQYLRPTKNHLNVVEYVSPQMFDYYKEEGMKMGFKYIASGPLVRSSYKAGEYFMKNLVEQRRGVKLHAEG | not soluble
MSIIGRFKDIMSANINALLDKAENPEKMVDQYLRNMNSDLAKVKAETAAVMAEEQRAKREYHECQADMEKMESYAMKALQAGNESDARKFLERKTSLESKLSELQAANQIAATNAAQMRKMHDKLVSDIGELEARKNMIKAKWAVAKTQERMNKLGASVSSTSQSMSAFGRMEDKVNKALDQANAMAELNSAPQDDMADLSAKYDTGGSSQVDDELAALKAKMMLDKLEHHHHHH | not soluble
MGSDKIHHHHHHMDTQAFKRSLHHSERYNRRGFGRANEVASNLEKAYQSSLIGSIRDNGYVLQHGRLQVKLAEAFGFCWGVERAVAMAYETRRHYPSERIWITNEIIHNPSVNEHLREMDVLFIHAEGGVKDFSCVNDGDVVILPAFGATVQEMELLHERGCHIIDTTCPWVSKVWHTVEKHKKQEFTSIIHGKVKHEETLATSSFAGTYLVVLDLDEAQLVADYILGQGDRAAFMKRFAKACSANFDPDQDLQRLGVANQTTMLKSETEEIGRLFERTMLRKYGPIELNKHFLSFNTICDATEERQQAMFSLVDEPLDLLVVIGGFNSSNTTHLQEIAISRGIRSFHIDTPERIGDNNSIQHKPLGEDLFIESNFLPAGSVSVGITSGASTPDRVVEHVIQKLIDLTSG | not soluble
MGSDKIHHHHHHMAINTTPLSESSKNNPDKQNNFVIALAGNPNVGKSTVFNRLTGLKQHTGNWPGKTVIKAEGTFSHRNRHYTLVDLPGTYSLHASSSDEEVARNFICFSRPDITLVVCDATCLERNLNLVLQILEITDRVLVCVNLLDEAERKGIQVDIAMLARQLGIPVVGTAARSGRGLESLKNVLDDMLAGKIAIQPRQLVYDPELEASINRIEKRLAPYLPAWINSRWVTLRVLERDFSILEHISNHKNNDFPRQVLKEEVALCLR | not soluble
MSLCGIAGFFSRRPVNPAVPQAMLDELHRRGPDDASRLLLDSELNPADGGAIHNAMLHARLAIVDPRPVANQPMASDDGQVWICYNGEVYDWEIGKAELEAGGAVFRTHSDTEFILRGYQAWGIEGLLERLRGMFAFAILDKRCEKVHLARDRMGEKPLLYSLQDGDFAYGSLVRAVLPFLPADKRAFSPAAIDAYLAHRYIPSPATVFSHINRLENGYRLEFDLNTRQLTKQRYWQPKAESGDWLPELDRAVAMRTVADRPLGVLLSGGIDSTVIASRLAIQQLTQFSSFTAAFPGSTLDESGDAADSARRMGLPNVRVDMPENLAADFERIVADLDQPFADPSSFPTWYLAREVTKHVKVVLVGDGGDELLAGYKRMGKHLRTRWRQNIRLPLPIKPQLDSKRGKLATELAMDWKSAYSLRFSGFTPGQRSFLQGGRKLEKLCHWRAPDDIGPEPGDGSPGLHQLLELDFANYLPDYILQKSDLCTMAHGLEGRAPLLDHGFYQRLLSTSAAERYTRPAKLIFRRAIHPALPTDFFQRKKRGFNPPLSGWLKTSLAPRFDGLGSRLAEASGGQLDAGAVDAFARAYRDGAGHLAEQMLQLLILDESLTQLRRLCRELGEGHHHHHH | soluble
MGSDKIHHHHHHMKGKYRVGLISFSDGREYVHRELEGIVKKFEDEIAKTLEETGEVEVIRAKEIVWKPSIAKREARRLAEEGAEVTIFNYAVWAFPHFTVLASKFAPGPFLLFSNINPQYPGMVAMLSAAGALEQDGTKHYRMWGNIKDEKVLRKVMAFIRAGSTYKKLRGQRYGVFGGRSMGMYTAVPNVDLWNKIFGVDVEHIDQFEIVRRSQLIPDERARKGRLWIEEKAKAVHYDGKYLTPEKLELQIKSYHAVREIVEEMELDFVGIKGQLELTEHFVTMDVTETFLNDPYDWEGEHEPIVCATEADSDGALTMQIFKLIAKTPVLFADVRHYVEEYDVLDLCNSGNHATYFAARSFDPDENMKKVEFYPQTFYFPAGGAAVKHIAAPGKVTLGRLTREDGRYRFTVVPGEFVDFGEEKNYEIADSIQNNWPHAFLKMETPIDEFLAKYSSNHIHGVYGDYVEEIKTFCEIASIDFVLMK | not soluble
MTQVTVKELAQVVDTPVERLLLQMRDAGLPHTSAEQVVTDSEKQALLTHLKGSHGDRASEPRKITLQRKTTTTLKVGGSKTVSVEVRKKKTYVKRSPDEIEAERQRELEEQRAAEEAERLKAEEAAARQRAEEEARKAEEAARAKAAQEAAATAGAEPAVVADVAVAEPVAKPAAVEERKKEEPRRVPKRDEDDDRRDRKHTQHRPSVKEKEKVPAPRVAPRSTDEESDGYRRGGRGGKSKLKKRNQHGFQNPTGPIVREVNIGETITVAELAAQMSVKGAEVVKFMFKMGSPVTINQVLDQETAQLVAEELGHKVKLVSENALEEQLAESLKF | not soluble
MTPLGPASSLPQSFLLKCLEQVRKIQGDGAALQEKLCATYKLCHPEELVLLGHSLGIPWAPLSSCPSQALQLAGCLSQLHSGLFLYQGLLQALEGISPELGPTLDTLQLDVADFATTIWQQMEELGMAPALQPTQGAMPAFASAFQRRAGGVLVASHLQSFLEVSYRVLRHLAQP | soluble
MSPLNLHTDTTPSLLTFSDVKSFEKIYTMYWARVYATCYNTIKEREVAKEMVQDIFKSLWERKDELEIKTSVEHYLVRAAKFKVFEYIRNKTNQKKHTACALEDYCSATNCTEDAILYSNLTEKVGVLVDRLPCQCRNVYTLSRTEGLTNKEIATRLLISERAVEQHITKALRFLRENLQEYRS | not soluble
MGSDKIHHHHHHMISTANITMQFGSKPLFENVSVKFNNGNRYGLIGANGCGKSTFMKILGGDLEPSAGQVMLEPNTRLGKLRQDQFAYEEFTVIDTVIMGHGQLWKVKAERDRIYSLPEMTEEDGMAVAELETEFAEMDGYTAESRAGELLLGLGIPLEQHFGPMSEVAPGWKLRVLLAQALFSDPDVLLLDEPTNHLDINTIRWLETILTARNSTMIIISHDRHFLNSVCTHMADLDYGELRLFPGNYDEYMTAATQSREQLLSDNAKKKAQIAELQTFVSRFSANASKAKQATSRAKQIDKIQLAEVKPSSRVSPFIRFEQAKKLHRQAVVVEKMAKAFDDKVLFKNFDITVEAGERVAIIGPNGIGKTTLLRTLVGEMTPDAGSVKWTDSAEVGYYAQDHAHDFEDDMTLFDWMGQWTSGEQVIRGTLGRMLFSNDEILKSVKVISGGEQGRMLFGKLILQKPNVLVMDEPTNHLDMESIEALNLALENYPGTLLFVSHDREFVSSLATRIIELSADGVVDFSGTYDDYLRSQGVLV | not soluble
MSTQLATSMEIIRKSLRKAAEDVLHINSKNAISNEVDSEEFKETLMKDAMKLMELETEGAQMQHIFEALHNDLKDGSDEVPNEKALEELYEKAKKTHKNVKGERQYFKDIIKSIRDESKNDENEMEVMQVQHSRKDPISKKDIVNPVISKNCGHVYDRDSIHEFAGKKRVIKCAMQGCSETINIGQLADYPDYWTNIKQQQ | not soluble
MPKSDTKQKKRRSNKNRLRIKRARLFGPKDIDQVKEDIESQKKIEYDPELPGGGHFYCCECDRHFITEKVLMEHKRSNPHRRRAKEVREVAHSQRDAEWAVGLT | not soluble
